Experimental findings from paper doi:10.1101/2019.12.17.880419 are described below.

Read-outs that look alike come from different tables or passages of the source.

Common to all, as to assay: ITC
A general note: In ITC the heat of successive injections is recorded.

Series [1] deals with T1, UHRF1 SRA (mouse, UniProt Q8VDF2 417-628).
T1 sequence: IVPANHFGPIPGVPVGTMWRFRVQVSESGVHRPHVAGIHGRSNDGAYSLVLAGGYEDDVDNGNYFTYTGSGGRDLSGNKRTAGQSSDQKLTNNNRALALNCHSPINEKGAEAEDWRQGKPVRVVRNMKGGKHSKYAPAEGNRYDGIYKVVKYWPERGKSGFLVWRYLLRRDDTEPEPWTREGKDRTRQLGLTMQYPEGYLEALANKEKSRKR

The target of series [2] is T1, UHRF1 SRA. This is another data set of the same source.
For series [3], the target named is T1, UHRF1 SRA. The source holds these as a separate data set.
For series [4], the target named is T1, UHRF1 SRA. This is another data set of the same source.

B1: fully-mCHG DNA (ITC) (dsDNA)
DNA 1: TCACGCTGCGTGA
DNA 2: TCACGCTGCGTGA
modifications: 5mC on both strands in CHG context
B1 displayed a dissociation constant Kd with UHRF1 SRA [1] of 1850 ± 60 nM.

B2: mCH DNA (dsDNA)
DNA 1: TCATCAGTGAT
DNA 2: TCACTGATGAC
modifications: 5mC in CH context
B2 came in with a Kd in the series with UHRF1 SRA [2] of 1160 ± 90 nM.

B3: hemi-mCG DNA (dsDNA)
DNA 1: GCAATCCGGTAG
DNA 2: CTACCGGATTGC
modifications: 5mC on one strand in CG context
In the series with UHRF1 SRA [3], B3 displayed an equilibrium dissociation constant (Kd) of 640 ± 120 nM.

B4: fully-mCG DNA (dsDNA)
DNA 1: CAGCTCGAGCTG
DNA 2: CAGCTCGAGCTG
modifications: 5mC on both strands in CG context
On to B4, for which the Kd with UHRF1 SRA [4] came out at 4130 ± 90 nM.

The Kd is the concentration at which binding is half-saturated. High values mean weaker binding, low ones tighter binding.
